The labels stand for the following.
B2: ^mChSpindly^CC2* (R295E-K297E) (natural protein)
chain: MEADIITNLRCRLKEAEEERLKAAQYGLQLVESQNELQNQLDKCRNEMMTMTESYEQEKYTLQREVELKSRMLESLSCECEAIKQQQKMHLEKLEEQLSRSHGQEVNELKTKIEKLKVELDEARLSEKQLKHQVDHQKELLSCKSEELRVMSERVQESMSSEMLALQIELTEMESMKTTLKEEVNELQYRQEQLELLITNLMRQVDRLKEEKEEREKEAVSYYNALEKARVANQDLQVQLDQALQQALDPNSKGNSLFAEVEDRRAAMERQLISMKVKYQSLKKQNVFNREQMQEMELQIATLLQMKGSQTEFEQQERLLAMLEQKNGEIKHLLGEIRNLEKFKNLYDSMESKPSVDSGTLEDNTYYTDLLQMKLDNLNKEIESTKGELSIQRMKALFESQRALDIERKLFANERCLQLSESENMKLRAKLDELKLKYEPEETVEVPVLKKRREVLPVDITTAKDACVNNSALGGEVYRLPPQKEETQSCPNSLEDNNLQLEKSVSIYTPVVSLSPHKNLPVDMQLKKEKKCVKLIGVPADAEALSERSGNTPNSPRLAAESKLQTEVKEGKETSSKLEKETCKKLHPILYVSSKSTPETQCPQQ

For data set [1], the target named is T1, ^mChSpindly^ΔRV (human, UniProt Q96EA4 1-605, ΔRV (residues R154-V155)).
T1 sequence: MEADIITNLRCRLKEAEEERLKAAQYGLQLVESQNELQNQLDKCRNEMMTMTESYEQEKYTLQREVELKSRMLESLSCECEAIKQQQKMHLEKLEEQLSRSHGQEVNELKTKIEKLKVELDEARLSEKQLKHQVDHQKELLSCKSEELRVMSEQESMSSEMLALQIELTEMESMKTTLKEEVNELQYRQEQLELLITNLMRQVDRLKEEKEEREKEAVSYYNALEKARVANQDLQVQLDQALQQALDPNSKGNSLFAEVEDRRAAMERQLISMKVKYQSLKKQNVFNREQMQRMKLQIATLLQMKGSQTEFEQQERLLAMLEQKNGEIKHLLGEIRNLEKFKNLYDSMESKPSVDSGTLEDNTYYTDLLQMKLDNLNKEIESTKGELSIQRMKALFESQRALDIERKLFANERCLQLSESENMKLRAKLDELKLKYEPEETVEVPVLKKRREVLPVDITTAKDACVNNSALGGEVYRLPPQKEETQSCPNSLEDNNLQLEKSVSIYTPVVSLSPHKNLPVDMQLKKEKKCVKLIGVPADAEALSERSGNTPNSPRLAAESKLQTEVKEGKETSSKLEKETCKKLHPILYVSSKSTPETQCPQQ
Briefly: pull-down.

Data set [2] has as its target B2. Briefly: pull-down.
For data set [3], the target named is ROD-Zwilch-ZW10 (RZZ) complex with mCherry on ROD (UniProt P50748;Q9H900;O43264). Briefly: SEC.
Chain of ROD-Zwilch-ZW10 (RZZ) complex with mCherry on ROD (P50748 whole entry, chain 1 of 3): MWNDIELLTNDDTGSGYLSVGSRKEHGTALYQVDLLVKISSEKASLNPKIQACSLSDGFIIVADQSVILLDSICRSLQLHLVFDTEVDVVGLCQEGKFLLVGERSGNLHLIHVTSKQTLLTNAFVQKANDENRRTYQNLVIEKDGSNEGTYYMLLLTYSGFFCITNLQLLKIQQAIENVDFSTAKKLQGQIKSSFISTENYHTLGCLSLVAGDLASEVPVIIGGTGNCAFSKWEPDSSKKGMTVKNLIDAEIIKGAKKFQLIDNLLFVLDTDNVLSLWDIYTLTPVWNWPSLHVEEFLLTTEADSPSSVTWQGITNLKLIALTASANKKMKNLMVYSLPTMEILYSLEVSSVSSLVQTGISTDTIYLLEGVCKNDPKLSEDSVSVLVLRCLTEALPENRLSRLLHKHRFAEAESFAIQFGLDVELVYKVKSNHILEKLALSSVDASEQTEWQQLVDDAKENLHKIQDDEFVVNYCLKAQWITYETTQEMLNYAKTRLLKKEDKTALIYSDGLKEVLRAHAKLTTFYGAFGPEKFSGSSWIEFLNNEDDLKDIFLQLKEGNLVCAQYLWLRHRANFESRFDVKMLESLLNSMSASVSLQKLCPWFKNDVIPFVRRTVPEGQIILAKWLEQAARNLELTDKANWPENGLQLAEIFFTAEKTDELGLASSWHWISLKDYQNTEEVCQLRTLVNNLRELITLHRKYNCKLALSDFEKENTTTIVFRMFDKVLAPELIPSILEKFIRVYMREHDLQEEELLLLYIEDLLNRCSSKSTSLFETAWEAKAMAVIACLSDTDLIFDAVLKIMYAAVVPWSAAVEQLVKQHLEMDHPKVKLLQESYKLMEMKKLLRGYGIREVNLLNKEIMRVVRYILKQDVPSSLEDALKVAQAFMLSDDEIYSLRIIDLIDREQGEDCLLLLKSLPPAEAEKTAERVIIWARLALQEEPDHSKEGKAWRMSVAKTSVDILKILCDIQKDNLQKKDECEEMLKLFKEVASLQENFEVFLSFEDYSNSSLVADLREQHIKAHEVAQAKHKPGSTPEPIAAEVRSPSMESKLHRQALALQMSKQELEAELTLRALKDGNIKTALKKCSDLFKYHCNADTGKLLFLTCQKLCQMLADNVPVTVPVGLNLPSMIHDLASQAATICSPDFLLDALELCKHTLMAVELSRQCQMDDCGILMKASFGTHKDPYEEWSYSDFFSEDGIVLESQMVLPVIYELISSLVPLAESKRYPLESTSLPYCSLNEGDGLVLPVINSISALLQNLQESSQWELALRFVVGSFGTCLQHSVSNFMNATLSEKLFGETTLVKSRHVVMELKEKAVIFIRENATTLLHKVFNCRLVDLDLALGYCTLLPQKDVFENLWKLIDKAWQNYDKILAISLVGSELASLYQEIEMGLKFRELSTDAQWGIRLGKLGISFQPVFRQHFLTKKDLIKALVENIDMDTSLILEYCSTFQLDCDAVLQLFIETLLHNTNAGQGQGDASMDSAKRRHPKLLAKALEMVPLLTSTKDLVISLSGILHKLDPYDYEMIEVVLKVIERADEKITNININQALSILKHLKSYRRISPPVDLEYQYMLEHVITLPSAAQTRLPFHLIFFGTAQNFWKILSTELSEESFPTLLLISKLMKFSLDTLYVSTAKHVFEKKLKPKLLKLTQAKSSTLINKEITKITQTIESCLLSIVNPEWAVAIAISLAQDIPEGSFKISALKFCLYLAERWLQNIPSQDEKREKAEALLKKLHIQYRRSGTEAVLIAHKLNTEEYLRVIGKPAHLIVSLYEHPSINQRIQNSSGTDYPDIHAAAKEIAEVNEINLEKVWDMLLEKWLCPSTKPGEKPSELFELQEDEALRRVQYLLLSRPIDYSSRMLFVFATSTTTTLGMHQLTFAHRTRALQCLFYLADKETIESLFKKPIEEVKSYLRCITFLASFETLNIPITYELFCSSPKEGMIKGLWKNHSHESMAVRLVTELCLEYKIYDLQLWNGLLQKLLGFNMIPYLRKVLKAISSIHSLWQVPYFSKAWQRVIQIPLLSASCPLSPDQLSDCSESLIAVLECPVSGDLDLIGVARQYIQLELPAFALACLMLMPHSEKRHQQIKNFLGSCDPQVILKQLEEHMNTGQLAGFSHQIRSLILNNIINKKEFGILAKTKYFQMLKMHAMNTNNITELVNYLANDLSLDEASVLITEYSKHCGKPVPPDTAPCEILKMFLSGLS
Chain of ROD-Zwilch-ZW10 (RZZ) complex with mCherry on ROD (Q9H900 whole entry, chain 2 of 3): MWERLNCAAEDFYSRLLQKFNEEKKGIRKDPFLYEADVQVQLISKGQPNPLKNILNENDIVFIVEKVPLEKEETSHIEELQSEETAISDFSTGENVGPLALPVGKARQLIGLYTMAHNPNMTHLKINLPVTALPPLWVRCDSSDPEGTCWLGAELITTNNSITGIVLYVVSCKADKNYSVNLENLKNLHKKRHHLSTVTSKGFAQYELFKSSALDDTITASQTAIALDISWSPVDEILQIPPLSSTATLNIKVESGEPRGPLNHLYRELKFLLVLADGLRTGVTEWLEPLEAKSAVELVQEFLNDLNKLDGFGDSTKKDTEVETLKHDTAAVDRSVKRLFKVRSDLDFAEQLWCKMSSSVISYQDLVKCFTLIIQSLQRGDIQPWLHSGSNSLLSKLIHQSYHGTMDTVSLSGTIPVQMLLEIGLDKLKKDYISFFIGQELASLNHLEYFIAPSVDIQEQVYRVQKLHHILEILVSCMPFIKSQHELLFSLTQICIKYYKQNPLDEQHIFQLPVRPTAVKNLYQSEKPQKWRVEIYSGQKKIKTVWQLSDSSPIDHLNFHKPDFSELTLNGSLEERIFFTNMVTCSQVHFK
Chain of ROD-Zwilch-ZW10 (RZZ) complex with mCherry on ROD (O43264 whole entry, chain 3 of 3): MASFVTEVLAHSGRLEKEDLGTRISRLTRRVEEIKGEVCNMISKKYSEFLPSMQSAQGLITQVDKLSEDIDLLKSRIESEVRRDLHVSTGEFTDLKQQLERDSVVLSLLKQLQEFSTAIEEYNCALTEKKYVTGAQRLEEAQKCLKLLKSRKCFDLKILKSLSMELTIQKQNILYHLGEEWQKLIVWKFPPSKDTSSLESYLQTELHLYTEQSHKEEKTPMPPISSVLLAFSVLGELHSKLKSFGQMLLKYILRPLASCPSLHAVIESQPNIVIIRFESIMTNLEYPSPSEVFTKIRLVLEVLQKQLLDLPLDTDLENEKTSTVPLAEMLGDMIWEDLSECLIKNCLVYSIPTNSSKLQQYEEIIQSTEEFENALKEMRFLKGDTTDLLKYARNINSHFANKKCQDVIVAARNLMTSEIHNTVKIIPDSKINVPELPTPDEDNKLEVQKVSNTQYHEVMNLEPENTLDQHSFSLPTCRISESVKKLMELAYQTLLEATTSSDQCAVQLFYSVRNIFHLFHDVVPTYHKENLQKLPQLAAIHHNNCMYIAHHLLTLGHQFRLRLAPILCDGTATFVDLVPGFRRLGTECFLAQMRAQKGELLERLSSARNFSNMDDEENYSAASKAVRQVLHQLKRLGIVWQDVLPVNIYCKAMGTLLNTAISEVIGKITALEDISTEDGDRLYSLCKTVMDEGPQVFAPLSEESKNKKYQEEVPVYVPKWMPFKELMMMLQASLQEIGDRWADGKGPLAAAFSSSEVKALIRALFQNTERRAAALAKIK
Data set [4] deals with the molecule itself. Briefly: mass photometry.

B1: GST-tagged LIC2 (Dynein light intermediate chain 2) (natural protein)
chain: MAPVGVEKKLLLGPNGPAVAAAGDLTSEEEEGQSLWSSILSEVSTRARSKLPSGKNILVFGEDGSGKTTLMTKLQGAEHGKKGRGLEYLYLSVHDEDRDDHTRCNVWILDGDLYHKGLLKFAVSAESLPETLVIFVADMSRPWTVMESLQKWASVLREHIDKMKIPPEKMRELERKFVKDFQDYMEPEEGCQGSPQRRGPLTSGSDEENVALPLGDNVLTHNLGIPVLVVCTKCDAVSVLEKEHDYRDEHLDFIQSHLRRFCLQYGAALIYTSVKEEKNLDLLYKYIVHKTYGFHFTTPALVVEKDAVFIPAGWDNEKKIAILHENFTTVKPEDAYEDFIVKPPVRKLVHDKELAAEDEQVFLMKQQSLLAKQPATPTRASESPARGPSGSPRTQGRGGPASVPSSSPGTSVKKPDPNIKNNAASEGVLASFFNSLLSKKTGSPGSPGAGGVQSTAKKSGQKTVLSNVQEELDRMTRKPDSMVTNSSTENEA
As to B1, the binding result in data set [1] and in data set [2] was “binds” each time.
With B2, the binding result in data set [3] is given as “binds”. The “stoichiometry N” value in data set [4] was determined as 2.

For the origin of these results see publication doi:10.1101/2022.02.02.478874 (bioRxiv, 2022).
